Laboratory results as given in patent publication US20250206839A1, “METHODS, COMPOSITIONS AND USES FOR SEMA7A MONOCLONAL ANTIBODIES” (THE REGENTS OF THE UNIVERSITY OF COLORADO, A BODY CORPORATE, priority 2022, published 2025).

Target: T1, purified SEMA7A (Homo sapiens, UniProt O75326)
T1 construct: Fc; made in house; host or cells: cells stably transfected with SEMA7A-Fc plasmid (human breast cancer cells); purified from medium
T1 sequence (O75326 45-648 limits assumed): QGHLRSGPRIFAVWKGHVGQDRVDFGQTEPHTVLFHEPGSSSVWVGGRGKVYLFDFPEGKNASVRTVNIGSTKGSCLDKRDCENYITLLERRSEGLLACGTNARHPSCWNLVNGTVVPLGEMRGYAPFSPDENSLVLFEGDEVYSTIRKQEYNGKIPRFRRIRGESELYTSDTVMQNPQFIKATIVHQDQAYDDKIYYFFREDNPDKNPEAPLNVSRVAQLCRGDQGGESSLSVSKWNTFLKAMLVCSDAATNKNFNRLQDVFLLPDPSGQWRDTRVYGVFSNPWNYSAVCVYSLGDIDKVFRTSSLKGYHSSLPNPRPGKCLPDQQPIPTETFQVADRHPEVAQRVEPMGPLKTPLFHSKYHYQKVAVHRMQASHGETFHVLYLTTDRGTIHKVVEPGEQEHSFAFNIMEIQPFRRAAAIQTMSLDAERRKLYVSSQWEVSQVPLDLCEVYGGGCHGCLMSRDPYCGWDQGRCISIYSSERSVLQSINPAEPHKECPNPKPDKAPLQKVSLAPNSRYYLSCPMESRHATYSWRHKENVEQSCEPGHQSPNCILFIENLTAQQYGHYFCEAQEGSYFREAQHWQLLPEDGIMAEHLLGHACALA
Assay: ELISA binding to purified SEMA7A
Method: The MultiSorp ELISA 96 well ELISA plate (Thermo Scientific) was coated with 100 μl per well of 50 μg/ml of purified SEMA7A in Coating Buffer A (Thermo Scientific CB07100) and allowed to attach overnight with gentle rocking at 4 degrees. For the peptide competition, half of the antibody was incubated in an Eppendorf tube overnight at a ratio of 1:10 with the SEMA7A peptide on a rotator at 4 degrees. The plate was washed with 200 μl per well of 1× wash buffer (Thermo Scientific WB01) and blocked with 200 μl 1× assay buffer (Thermo Scientific DS98200) for 2 hours and room temp with gentle rocking. 1× assay buffer was removed and a 200 μl serial dilution of SMEA7A mAb in 1× assay buffer was made from columns 1 through 9, with column 10-12 getting 1× assay buffer only. The plate was incubated overnight with gentle rocking at 4 degrees. The plate was washed twice with 200 μl of 1× wash buffer. 100 μl of 200 ng/ml Goat Anti-Mouse IgG HRP (Abcam 97040) in 1× assay buffer was added to columns 1-11, with column 12 getting 1× assay buffer only. The plate was incubated for 2 hours with gentle rocking at room temp. The plate was washed four times with 200 μl 1× wash buffer. 150 μl SuperSignal Femto for ELISA (Thermo Scientific) was mixed 1:1 added to each well and mixed for 1 min and then left to rock at room temperature for 30 minutes. The absorbance was read at 425 nm on a microplate reader.

B1: recombinant anti-SEMA7A monoclonal antibody: recombinant anti-SEMA7A monoclonal antibody; illustrative recombinant heavy chain SEQ ID NO: 28, light chain SEQ ID NO: 29 (antibody)
heavy: EVQLQQSGTVLARPGASVKMSCKASGYSFTSYWMHWVKQRPGQGLEWIGAIYPGNSDTSYNQKFKGKAKLTAVTSASTAYMELSSLTNEDSAVYYCTRGGAPTMITAYYAMDYWGQGTSVTVSSAKTTPPSVYPLAPGSAAQTNSMVTLGCLVKGYFPEPVTVTWNSGSLSSGVHTFPAVLQSDLYTLSSSVTVPSSTWPSETVTCNVAHPASSTKVDKKIVPRDCGCKPCICTVPEVSSVFIFPPKPKDVLTITLTPKVTCVVVDISKDDPEVQFSWFVDDVEVHTAQTQPREEQFNSTFRSVSELPIMHQDWLNGKEFKCRVNSAAFPAPIEKTISKTKGRPKAPQVYTIPPPKEQMAKDKVSLTCMITDFFPEDITVEWQWNGQPAENYKNTQPIMDTDGSYFVYSKLNVQKSNWEAGNTFTCSVLHEGLHNHHTEKSLSHSPGK
light: DIQMTQTTSSLSASLGDRVTISCRASQDISNYLNWYQQKPDGTVKLLIYYTSRLHSGVPSRFSGSGSGTDYSLTISNLEQEDIATYFCQQGNTLPWTFGGGTKLEIKRADAAPTVSIFPPSSEQLTSGGASVVCFLNNFYPKDINVKWKIDGSERQNGVLNSWTDQDSKDSTYSMSSTLTLTKDEYERHNSYTCEATHKTSTSPIVKSFNRNEC
binding to purified SEMA7A in presence of immunizing peptide (10× immunizing peptide): blocked this ability
binding to purified SEMA7A (serial dilution): bound to purified SEMA7A in a dose dependent manner
